Assay [1] deals with carboxymethyl lysine conjugated to keyhole limpet hemocyanin (CML-KLH). The assay is described as follows: direct binding ELISA, CML-KLH coat 1 µg/mL, antibody at 0 µg/mL (buffer control well, background). (In general: ELISA stands for enzyme-linked immunosorbent assay.)
For assay [2] the target is unchanged. Briefly: direct binding ELISA, CML-KLH coat 1 µg/mL, antibody at 5.56 µg/mL.
Assay [3] has the same target. Briefly: direct binding ELISA, CML-KLH coat 1 µg/mL, antibody at 0.07 µg/mL.
The target is the same in assay [4]. The assay is described as follows: direct binding ELISA, CML-KLH coat 1 µg/mL, antibody at 1.85 µg/mL.
The target is the same in assay [5]. Briefly: direct binding ELISA, CML-KLH coat 1 µg/mL, antibody at 0.62 µg/mL.
Assay [6] has the same target. The assay is described as follows: direct binding ELISA, CML-KLH coat 1 µg/mL, antibody at 16.67 µg/mL.
For assay [7] the target is unchanged. The assay is described as follows: direct binding ELISA, CML-KLH coat 1 µg/mL, antibody at 50 µg/mL.
Assay [8] has the same target. Briefly: direct binding ELISA, CML-KLH coat 1 µg/mL, antibody at 0.21 µg/mL.

As to “carboxymethyl lysine MAb (Clone 318003), R&D Systems, Inc., catalog no. MAB3247 (antibody)”, the OD450 in assay [1] turned out to be 0.09 OD450; in assay [2], 0.165 OD450; in assay [3], 0.086 OD450; in assay [4], 0.092 OD450; in assay [5], 0.083 OD450; in assay [6], 0.312 OD450. Further, the OD450 in assay [7] was 0.462 OD450; in assay [8], 0.075 OD450.

Values taken from patent US20210253737A1.
